Measurements: PMC10045995

Tests used:
[1] = target: epidermal growth factor receptor (EGFR), expressed in sensor cells as fusion protein 1 (mNpu^N-EGFR) and fusion protein 2 (EGFR-Npu^C-rMTS-mCherry) (UniProt P00533)
[2] = target: epidermal growth factor receptor (EGFR), expressed in sensor cells as fusion protein 1 (mNpu^N-EGFR) and fusion protein 2 (EGFR-Npu^C-rMTS-mCherry) (UniProt P00533); remark: listed apart in the source

Row | co-localisation (Pearson's r) of mCherry with mitochondrial stain in sensor cells treated with EGF 0.001-100 ng/mL for 1 h (untreated control 0.08) [1] [Pearson's r] | limit of detection (LOD) of EGF by the sensor cells (mCherry translocation to mitochondria) [1] [ng/mL] | co-localisation (Pearson's r) of mCherry with mitochondrial stain in EGF-treated sensor cells (agonist/antagonist screen; untreated control 0.1) [2] [Pearson's r] | co-localisation (Pearson's r) of mCherry with mitochondrial stain in sensor cells co-treated with EGF and Cetuximab (400 nM) (EGF alone 0.8) [2] [Pearson's r] | co-localisation (Pearson's r) of mCherry with mitochondrial stain in sensor cells treated with TGF-α (100 ng/mL) (untreated control 0.1) [2] [Pearson's r] | Substance
1 | 0.87 | 0.1 | 0.8 | 0.1 |  | epidermal growth factor (EGF) (from UniProt P01133 971-1023) (ligand)
2 |  |  |  |  | 0.8 | transforming growth factor-α (TGF-α) (from UniProt P01135 40-89) (ligand)
